Consider two molecules from US7732151B2, “Use of IRS-polypeptides for identifying of pharmaceutically active compounds” (Sanofi-Aventis Deutschland GmbH, priority 2003, dated 2010).

In series [1] the target is T1, rat liver insulin receptor (WGA-IR) (Rattus norvegicus, UniProt P15127).
T1 construct: tissue Sigma (named as alternative source) 70543; host or cells: rat liver
Kind of series: ALPHAScreen: phosphorylation of biotinylated IRS-1 fragment by wheat germ lectin affinity-purified rat liver insulin receptor. Conditions: 85 nM biotinylated IRS fragment, 50 μM ATP, 30° C. for 30 minutes, p-Tyr antibody detection, FIG. 4. It is filed as biochemical. The text has this:
The measurement of the kinase activity using ALPHAScreen™ from Perkin-Elmer Life Sciences, which is particularly expedient for the purposes of the present invention, takes place for example by the kinase to be investigated phosphorylating a biotinylated peptide in a biochemical mixture in the presence of ATP. The phosphorylated peptide is then bound by a specific anti-phospho antibody to which protein A-conjugated acceptor beads or provided with suitable second antibodies are coupled. The same mixture contains streptavidin-coupled donor beads which bind the biotin portion of the peptide. The binding to the peptide brings acceptor beads and donor beads in direct vicinity, starting a cascade of chemical reactions which generate a highly amplified, detectable luminescence signal: a photosensitizer in the donor bead is excited by laser excitation to convert oxygen in the surroundings into a singlet status. The singlet oxygen then diffuses to the acceptor bead where it excites a thioxene derivative which thus emits a chemiluminescence with a wavelength of 370 nm, which in turn excites further fluorophores in the acceptor bead to luminesce light with wavelengths of 520 to 620 nm. Since excitation of the fluorophores by singlet oxygen takes place only when donor bead and acceptor bead are in close vicinity, only then are detectable signals generated. […]

The conditions of series [2]: kinetic constant as enzyme substrate; cited from earlier work.

T1 sequence (P15127 27-759 limits assumed): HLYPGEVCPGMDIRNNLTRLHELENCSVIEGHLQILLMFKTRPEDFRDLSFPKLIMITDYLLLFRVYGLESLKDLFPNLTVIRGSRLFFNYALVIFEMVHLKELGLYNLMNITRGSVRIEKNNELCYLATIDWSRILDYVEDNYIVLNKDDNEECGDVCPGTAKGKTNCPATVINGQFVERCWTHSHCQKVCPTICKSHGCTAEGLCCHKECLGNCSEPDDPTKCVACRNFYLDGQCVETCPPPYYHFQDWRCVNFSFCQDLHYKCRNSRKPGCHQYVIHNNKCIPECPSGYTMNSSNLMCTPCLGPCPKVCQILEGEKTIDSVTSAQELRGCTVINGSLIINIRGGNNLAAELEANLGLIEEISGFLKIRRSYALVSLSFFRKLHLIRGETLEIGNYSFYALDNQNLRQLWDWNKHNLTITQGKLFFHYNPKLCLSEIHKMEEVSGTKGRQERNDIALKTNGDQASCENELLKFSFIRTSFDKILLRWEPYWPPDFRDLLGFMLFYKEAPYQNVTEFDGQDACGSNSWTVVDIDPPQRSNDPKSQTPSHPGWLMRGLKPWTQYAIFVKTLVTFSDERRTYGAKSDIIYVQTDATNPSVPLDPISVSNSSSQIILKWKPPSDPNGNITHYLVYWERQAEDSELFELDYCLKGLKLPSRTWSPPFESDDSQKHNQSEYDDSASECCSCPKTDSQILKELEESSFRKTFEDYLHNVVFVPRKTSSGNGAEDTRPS
T1 sequence (P15127 764-1383 partner limits assumed): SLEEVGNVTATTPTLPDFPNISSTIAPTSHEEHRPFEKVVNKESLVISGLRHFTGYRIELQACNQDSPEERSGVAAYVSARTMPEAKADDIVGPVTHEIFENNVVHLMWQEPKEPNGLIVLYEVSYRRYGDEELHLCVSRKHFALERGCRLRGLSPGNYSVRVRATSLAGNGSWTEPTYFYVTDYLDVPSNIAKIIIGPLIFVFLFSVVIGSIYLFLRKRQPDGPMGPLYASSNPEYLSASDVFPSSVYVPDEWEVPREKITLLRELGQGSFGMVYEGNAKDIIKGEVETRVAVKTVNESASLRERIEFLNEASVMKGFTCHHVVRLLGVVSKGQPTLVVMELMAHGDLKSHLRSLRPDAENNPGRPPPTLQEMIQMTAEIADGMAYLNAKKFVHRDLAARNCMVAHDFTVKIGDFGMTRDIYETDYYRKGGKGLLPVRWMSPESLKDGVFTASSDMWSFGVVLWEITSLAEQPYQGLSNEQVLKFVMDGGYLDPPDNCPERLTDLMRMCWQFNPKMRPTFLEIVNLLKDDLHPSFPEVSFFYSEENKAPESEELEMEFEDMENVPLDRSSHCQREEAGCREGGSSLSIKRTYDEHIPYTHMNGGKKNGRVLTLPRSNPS

The term EC50 denotes the concentration needed to bring the measured effect to its halfway point. Higher therefore signals a need for much substance. The molecule “insulin: human insulin, peptide hormone, commercially available from Sigma under order number I-9266” yielded an EC50 in series [1] of 10 nM.

B1: IRS-1: insulin receptor substrate 1 polypeptide used as kinase substrate (protein, listed as Homo sapiens)
chain: MASPPESDGFSDVRKVGYLRKPKSMHKRFFVLRAASEAGGPARLEYYENEKKWRHKSSAPKRSIPLESCFNINKRADSKNKHLVALYTRDEHFAIAADSEAEQDSWYQALLQLHNRAKGHHDGAAALGAGGGGGSCSGSSGLGEAGEDLSYGDVPPGPAFKEVWQVILKPKGLGQTKNLIGIYRLCLTSKTISFVKLNSEAAAVVLQLMNIRRCGHSENFFFIEVGRSAVTGPGEFWMQVDDSVVAQNMHETILEAMRAMSDEFRPRSKSQSSSNCSNPISVPLRRHHLNNPPPSQVGLTRRSRTESITATSPASMVGGKPGSFRVRASSDGEGTMSRPASVDGSPVSPSTNRTHAHRHRGSARLHPPLNHSRSIPMPASRCSPSATSPVSLSSSSTSGHGSTSDCLFPRRSSASVSGSPSDGGFISSDEYGSSPCDFRSSFRSVTPDSLGHTPPARGEEELSNYICMGGKGPSTLTAPNGHYILSRGGNGHRCTPGTGLGTSPALAGDEAASAADLDNRFRKRTHSAGTSPTITHQKTPSQSSVASIEEYTEMMPAYPPGGGSGGRLPGHRHSAFVPTRSYPEEGLEMHPLERRGGHHRPDSSTLHTDDGYMPMSPGVAPVPSGRKGSGDYMPMSPKSVSAPQQIINPIRRHPQRVDPNGYMMMSPSGGCSPDIGGGPSSSSSSSNAVPSGTSYGKLWTNGVGGHHSHVLPHPKPPVESSGGKLLPCTGDYMNMSPVGDSNTSSPSDCYYGPEDPQHKPVLSYYSLPRSFKHTQRPGEPEEGARHQHLRLSTSSGRLLYAATADDSSSSTSSDSLGGGYCGARLEPSLPHPHHQVLQPHLPRKVDTAAQTNSRLARPTRLSLGDPKASTLPRAREQQQQQQPLLHPPEPKSPGEYVNIEFGSDQSGYLSGPVAFHSSPSVRCPSQLQPAPREEETGTEEYMKMDLGPGRRAAWQESTGVEMGRLGPAPPGAASICRPTRAVPSSRGDYMTMQMSCPRQSYVDTSPAAPVSYADMRTGIAAEEVSLPRATMAAASSSSAASASPTGPQGAAELAAHSSLLGGPQGPGGMSAFTRVNLSPNRNQSAKVIRADPQGCRRRHSSETFSSTPSATRVGNTVPFGAGAAVGGGGGSSSSSEDVKRHSSASFENVWLRPGELGGAPKEPAKLCGAAGGLENGLNYIDLDLVKDFKQCPQECTPEPQPPPPPPPHQPLGSGESSSTRRSSEDLSAYASISFQKQPEDRQ
Usually Km stands for the concentration of substrate that gives half-maximal velocity. In the case of B1, the Km in series [2] is 19 µM.
